The target in the assay is T1, GST-HrcA fusion protein (C. jejuni NCTC11168 HrcA repressor fused to glutathione S-transferase) (C. jejuni NCTC 11168, UniProt Q9PPG2 1-264).
T1 construct: HrcA heat-shock transcriptional repressor of Campylobacter jejuni NCTC 11168; also called heat-shock repressor HrcA
T1 sequence (looked up): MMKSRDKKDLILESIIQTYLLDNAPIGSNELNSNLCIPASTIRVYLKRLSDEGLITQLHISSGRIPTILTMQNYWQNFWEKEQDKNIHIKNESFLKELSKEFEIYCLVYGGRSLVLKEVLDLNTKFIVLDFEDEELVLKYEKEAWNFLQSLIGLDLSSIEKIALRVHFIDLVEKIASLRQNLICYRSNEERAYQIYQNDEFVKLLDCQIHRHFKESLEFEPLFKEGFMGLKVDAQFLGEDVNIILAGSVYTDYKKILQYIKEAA
Description: pull-down; GST-HrcA on glutathione-agarose as bait, incubated 16 h at 4 °C with pre-cleared C. jejuni NCTC11168 cytoplasmic extract in Res buffer (10 mM Tris-HCl pH 7.5, 100 mM NaCl, 20 mM KCl, 1 mM EDTA, 0.01% NP-40); GroEL detected by anti-GroEL immunoblot; GST alone as control bait. The settings on record: one partner purified.

B1: GroEL chaperonin of C. jejuni (natural protein, UniProt O69289 1-545, looked up)
chain: MAKEIIFSDEARNKLYEGVKKLNDAVKVTMGPRGRNVLIQKSFGAPSITKDGVSVAKEVELKDSLENMGASLVREVASKTADQAGDGTTTATVLAHAIFKEGLRNITAGANPIEVKRGMDKACEAIVAELKKLSREVKDKKEIAQVATISANSDEKIGNLIADAMEKVGKDGVITVEEAKSINDELNVVEGMQFDRGYLSPYFITNAEKMTVELSSPYILLFDKKITNLKDLLPVLEQIQKTGKPLLIIAEDIEGEALATLVVNKLRGVLNISAVKAPGFGDRRKAMLEDIAILTGGEVISEELGRTLESATIQDLGQASSVIIDKDNTTIVNGAGEKANIDARVNQIKAQIAETTSDYDREKLQERLAKLSGGVAVIKVGAATETEMKEKKDRVDDALSATKAAVEEGIVIGGGAALIKAKAKIKLDLQGDEAIGAAIVERALRAPLRQIAENAGFDAGVVVNSVENAKDENTGFDAAKGEYVNMLESGIIDPVKVERVALLNAVSVASMLLTTEATISEIKEDKPTMPDMSGMGGMGGMGGMM
notes: GroEL (60 kDa chaperonin) of Campylobacter jejuni NCTC 11168, endogenous protein detected by anti-GroEL immunoblot; Only GroEL was detected in the pull-down; also called GroE chaperonin; source: endogenous, cytoplasmic protein extract of C. jejuni NCTC11168 wild type
On to B1, for which the “fold intensity of the GroEL band against the GST control pull-down” value is 6.2 fold.
